The target of test [1] is T1, recombinant biotinylated CD47 (recCD47, SinoBiological 12283-H27H-B) (UniProt Q08722 19-139, biotinylated (AVI-tag)).
T1 construct: Bought protein; also called recombinant CD47
As to the kind of experiment: SPR Biacore S200, biotinylated recCD47 on SA chip, scFv as analyte, single-cycle, 1:1 model, 25 C. As to the method: The affinity of CO-1 scFv to CD47 was determined via surface plasmon resonance (SPR) on a Biacore S200 system. Recombinant biotinylated CD47 was immobilized on an SA streptavidin chip to a level of 100 RU (in 10 mM NaAc pH 5.0). CO-1 scFv reacted with recombinant CD47 at gradient concentrations
(§1) A 1:1 binding model was used to fit the data. All curves are well fitted to the 1:1 model.

For test [2], the target named is T2, human CD47, cell-surface (on Jurkat cells, human red blood cells) (human, UniProt Q08722 19-323).
T2 construct: also called Integrin Associated protein (IAP); MER6
As to the kind of experiment: flow cytometry on Jurkat cells, detection with anti-His6-FITC, four parameter curve fit. As to the method: PBS-washed cancer cell lines or RBCs were pelleted and washed with washing buffer (3% (w/v) BSA, 1% (w/v) sodium azide in PBS) and incubated with Human BD Fc Block for 10 minutes before being plated into a round-bottom 96 well plate (2.5×10⁵ cells per well). The cells were then incubated with various concentrations of CO-1 scFv, or appropriate isotype controls as indicated for 1 h on ice with slight agitation. All samples were prepared in duplicates. Cells were washed twice, resuspended in cold His staining solution (1 μg/ml His₆-FITC in washing buffer), and incubated for 30 minutes on ice with slight agitation. Cells were analyzed by flow cytometry after two washes. Excitation wavelength FITC: 488 nm, detection: 530/30 nm.
The cells were incubated with increasing concentrations of CO-1 scFv, or isotype control, followed by incubation with an anti-His, FITC secondary antibody. […] The EC₅₀ for CO-1 scFv was analyzed by four parameter […] curve fitting in GraphPad and determined to be 0.05 ng/ml.

The target of test [3] is T2, human CD47, cell-surface (on Jurkat …). As to the kind of experiment: flow cytometry, FITC-conjugated scFv on Jurkat cells, FITC MFI against log µg/ml. As to the method:
FIG. 5: Binding of huCO-scFv to Jurkat cells. Jurkat cells incubated with increasing concentrations of FITC-conjugated huCO-scFv. FITC-intensity was analyzed by flow cytometry.
DPBS-washed cancer cell lines or RBCs were pelleted and washed with washing buffer (3% (w/v) BSA, 1% (w/v) sodium azide in DPBS) and incubated with Human BD Fc Block for 10 minutes before being plated into a round-bottom 96 well plate (2.5×10⁵ cells per well). The cells were then incubated with various concentrations of FITC-conjugated huCO-scFv, or human IgG4 isotype control as indicated for 1h on ice with slight agitation. All samples were prepared in duplicates. The cells were analyzed by flow cytometry after three washes in washing buffer. Excitation wavelength FITC: 488 nm, detection: 530/30 nm.
For orientation: Flow cytometry measures light scatter and fluorescence of single cells or particles in a stream.

Test [4] has as its target T1, recombinant biotinylated CD47 (recCD47, …). As to the kind of experiment: SPR Biacore S200, biotinylated recCD47 on SA chip, scFv as analyte, single-cycle, 1:1 model, 25 C. As to the method: The binding affinity of the huCO-mAbs to CD47 was determined via surface plasmon resonance (SPR) on a Biacore S200 system. Recombinant biotinylated CD47 was immobilized on an SA streptavidin chip to a level of 100 RU (in 10 mM NaAc pH5.0). […]
A 1:1 binding model was used to fit the data. All curves are well fitted to the 1:1 model. […] The affinity constant KD is calculated as kd/kₐ.
This is another data set of the same source. A general note: In SPR one partner is held on a chip, and binding of the other changes the refractive index at the surface.

The target in test [5] is T2, human CD47, cell-surface (on Jurkat …). As to the kind of experiment: cell-based or functional assay.
For test [6] the target is unchanged. As to the kind of experiment: flow cytometry on stimulated normal human B cells, FITC MFI against log µg/ml. As to the method:
FIG. 6: Hemagglutination and binding of red blood cells (RBCs) by huCO-scFv. (A) 2% RBCs (v/v in PBS) were incubated with increasing concentrations of the indicated antibodies or fragments for 30 minutes. A small punctate circle indicates no hemagglutination, while a diffuse hazy pattern indicates hemagglutination. (B) 2% RBCs (v/v in PBS) were incubated with increasing concentrations of FITC-conjugated CO201-scFv and analyzed by flow cytometry. (C and D) B cells were isolated from buffycoats of healthy human donors using CD19 Dynabeads and stimulated with 1 μg/ml CpG and RP105 for 24 hours. (C) B cells were incubated with the indicated antibodies or fragments at increasing concentrations and analyzed for binding by flow cytometry. (D) B cells were incubated with the indicated antibodies or fragments at concentrations in μg/ml for 3 hours, followed by staining with Annexin V and 7-AAD. % PCD=Annexin V-positive cells.

Test [7] has as its target T1, recombinant biotinylated CD47 (recCD47, …). As to the kind of experiment: SPR Biacore S200, biotinylated recCD47 on SA chip, fusion protein as analyte, single-cycle, 1:1 model, 25 C. As to the method:
The binding affinity of CO201-scFv-Fc-mono as described in Example 4 to CD47 was determined via surface plasmon resonance (SPR) on a Biacore S200 system. Recombinant biotinylated CD47 was immobilized on an SA streptavidin chip to a level of 100 RU (in 10 mM NaAc pH 5.0). CO201-scFv-Fc-mono reacted with recombinant CD47 at gradient concentrations
as §1

Test [8] has as its target T2, human CD47, cell-surface (on Jurkat …). As to the kind of experiment: flow cytometry on Jurkat cells, FITC MFI against log µg/ml.

One may read the Kd as the concentration at which binding is half-saturated. What is called koff is the rate constant with which the complex falls apart. The kon is the second-order rate constant of association. Usually EC50 stands for the midpoint of the concentration-response curve. Low readings indicate greater potency, high ones weaker potency. By EC50 (read off the curve) is commonly meant the concentration giving half of the maximal effect. A lower EC50 (read off the curve) goes with higher potency in that assay.

Positions count from the first letter of the chain named. Where “and” joins values, the source holds several entries; their conditions need not be identical. Identical values can stand only once.

T2 sequence (Q08722 19-323 limits assumed): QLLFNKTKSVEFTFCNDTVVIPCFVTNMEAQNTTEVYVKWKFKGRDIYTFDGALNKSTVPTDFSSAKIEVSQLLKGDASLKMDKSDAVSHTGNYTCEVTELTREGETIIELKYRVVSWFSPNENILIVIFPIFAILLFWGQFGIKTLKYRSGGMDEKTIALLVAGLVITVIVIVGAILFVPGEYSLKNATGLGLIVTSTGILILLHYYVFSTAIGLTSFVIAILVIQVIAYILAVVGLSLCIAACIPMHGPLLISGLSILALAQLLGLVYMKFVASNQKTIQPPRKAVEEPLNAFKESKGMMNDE
T1 sequence (Q08722 19-139 limits assumed): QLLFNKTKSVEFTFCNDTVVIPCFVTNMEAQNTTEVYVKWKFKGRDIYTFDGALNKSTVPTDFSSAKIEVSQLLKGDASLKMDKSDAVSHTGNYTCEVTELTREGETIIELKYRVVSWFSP

B1: CO-1 scFv (scFv)
scFv: QIQLVQSGPELKKPGETVKISCKASGYTFTNFGMHWVKQAPGKGLKWMGWINTYTGEPTYTDDFKGRFAFSLETSASTAYLQINSLKNEDTATFFCTRGDYRYGDSWGQGTTLTVSSGGGGSGGGGSGGGGSDVVMTQTPLSLPVSLGDQASISCRSSQSLVHSNGKTYLHWYLQKPGQSPKLLIYRVSNRFSGVPDRFSGSGSGTDFTLKISRIEAEDLGVYFCSQSTHVPFTFGSGTKLEIK
notes: Murine VH and VL of mCO-1 in single chain format; Detected on cells with anti-His6-FITC, so it carries a His tag; also called CO-1 scFv fragment; scFv fragment of mCO-1
Consider B1, for which, in test [1], the Kd was 0.179 nM and 0.18 nM; the koff was determined as 0.0056 s⁻¹; the on-rate constant (kon) is 3.1e+07 M⁻¹ s⁻¹. This molecule also registered a concentration giving a half-maximal response (EC50) in test [2] of 0.05 ng/mL.

B2: CO201-scFv (scFv)
scFv: QVQLVQSGSELKKPGASVKVSCKASGYTFTNFGMHWVRQAPGQGLEWMGWINTYTGEPTYTDDFKGRFVFSLDTSVSTAYLQISSLKAEDTAVYYCARGDYRYGDSWGQGTTVTVSSGGGGSGGGGSGGGGSDIVMTQTPLSLSVTPGQPASISCRSSQSLVHSNGKTYLHWYLQKPGQPPQLLIYRVSNRFSGVPDRFSGSGSGTDFTLKISRVEAEDVGVYYCSQSTHVPFTFGQGTKLEIK
notes: FITC-conjugated in the flow cytometry assays, unconjugated in SPR; also called huCO-scFv (collective); humanized scFv version of CO201
For B2, the “EC50 (read off the curve)” value in test [3] was ~2 µg/mL. In addition, in test [4], the Kd was determined as 0.061 nM, the off-rate constant (koff) is 0.00026 s⁻¹ and the on-rate (kon) came to 4.3e+06 M⁻¹ s⁻¹. The “programmed cell death (PCD) of Jurkat cells, Annexin V-positive cells after 3 hours” value (“programmed cell death (PCD)” below) in test [5] was ~60%.

B3: CO213-scFv (scFv)
scFv: B2 scFv with E46K
modifications: FITC-conjugated in the flow cytometry assays, sites not stated; unconjugated in SPR.
notes: FITC-conjugated in the flow cytometry assays, unconjugated in SPR; also called huCO-scFv (collective)
Regarding B3, in test [3], the half-maximal effective concentration (EC50 (read off the curve)) is ~1 µg/mL. In test [4], the Kd turned out to be 0.048 nM, the dissociation rate constant (koff) was 0.00021 s⁻¹ and the kon was determined as 4.4e+06 M⁻¹ s⁻¹. For the same molecule, the “programmed cell death (PCD)” value in test [5] is ~60%.

B4: CO209-scFv (scFv)
scFv: B2 scFv with P180S, Q182K
modifications: FITC-conjugated in the flow cytometry assays, sites not stated; unconjugated in SPR.
notes: as for B3
Turning to B4, in test [3], the “EC50 (read off the curve)” value is ~2 µg/mL. Besides, in test [4], the Kd was found to be 0.033 nM, the koff stood at 0.00017 s⁻¹ and the kon turned out to be 5.1e+06 M⁻¹ s⁻¹. Further, in test [5], the “programmed cell death (PCD)” value is ~60%. In addition, the “EC50 (read off the curve)” value in test [6] is ~4 µg/mL.

B5: CO201-scFv-Fc-mono (Fc fusion)
chain 1: QVQLVQSGSELKKPGASVKVSCKASGYTFTNFGMHWVRQAPGQGLEWMGWINTYTGEPTYTDDFKGRFVFSLDTSVSTAYLQISSLKAEDTAVYYCARGDYRYGDSWGQGTTVTVSSGGGGSGGGGSGGGGSDIVMTQTPLSLSVTPGQPASISCRSSQSLVHSNGKTYLHWYLQKPGQPPQLLIYRVSNRFSGVPDRFSGSGSGTDFTLKISRVEAEDVGVYYCSQSTHVPFTFGQGTKLEIKSKYGPPCPSCPAPEFLGGPSVFLFPPKPKDTLMISRTPEVTCVVVDVSQEDPEVQFNWYVDGVEVHNAKTKPREEQFNSTYRVVSVLTVLHQDWLNGKEYKCKVSNKGLPSSIEKTISKAKGQPREPQVYTLPPSQEEMTKNQVSLWCLVKGFYPSDIAVEWESNGQPENNYKTTPPVLDSDGSFFLYSRLTVDKSRWQEGNVFSCSVMHEALHNHYTQKSLSLSLGK
chain 2: SKYGPPCPSCPAPEFLGGPSVFLFPPKPKDTLMISRTPEVTCVVVDVSQEDPEVQFNWYVDGVEVHNAKTKPREEQFNSTYRVVSVLTVLHQDWLNGKEYKCKVSNKGLPSSIEKTISKAKGQPREPQVYTLPPSQEEMTKNQVSLSCAVKGFYPSDIAVEWESNGQPENNYKTTPPVLDSDGSFFLVSRLTVDKSRWQEGNVFSCSVMHEALHNHYTQKSLSLSLGK
notes: Knob-hole heterodimer with a single scFv, 77.3 kDa; FITC-conjugated in the flow cytometry assay on RBCs; also called huCO201-scFv-Fc-mono; huCO-scFv-Fc-mono
As to B5, in test [7], the equilibrium dissociation constant (Kd) was 0.097 nM, the koff was 0.0027 s⁻¹ and the on-rate (kon) was determined as 2.8e+07 M⁻¹ s⁻¹.

B6: CO-1.4 (antibody, V domains shown)
VH: QIQLVQSGPELKKPGETVKISCKASGYTFTNFGMHWVKQAPGKGLKWMGWINTYTGEPTYTDDFKGRFAFSLETSASTAYLQINSLKNEDTATFFCTRGDYRYGDSWGQGTTLTVSS
VL: DVVMTQTPLSLPVSLGDQASISCRSSQSLVHSNGKTYLHWYLQKPGQSPKLLIYRVSNRFSGVPDRFSGSGSGTDFTLKISRIEAEDLGVYFCSQSTHVPFTFGSGTKLEIK
notes: Divalent comparator antibody against CD47; also called full length IgG4 format of the CO-1 antibody; chimeric IgG4 comparator antibody
As for B6, the “EC50 (read off the curve)” value was ~0.3 µg/mL in test [8] and ~0.2 µg/mL in test [6].

Values taken from patent US20260109764A1 (CAEDO ONCOLOGY, published 2026).
